# B1: margetuximab (antibody, human IgG1, kappa)
# heavy: QVQLQQSGPELVKPGASLKLSCTASGFNIKDTYIHWVKQRPEQGLEWIGRIYPTNGYTRYDPKFQDKATITADTSSNTAYLQVSRLTSEDTAVYYCSRWGGDGFYAMDYWGQGASVTVSSASTKGPSVFPLAPSSKSTSGGTAALGCLVKDYFPEPVTVSWNSGALTSGVHTFPAVLQSSGLYSLSSVVTVPSSSLGTQTYICNVNHKPSNTKVDKRVEPKSCDKTHTCPPCPAPELVGGPSVFLLPPKPKDTLMISRTPEVTCVVVDVSHEDPEVKFNWYVDGVEVHNAKTKPPEEQYNSTLRVVSVLTVLHQDWLNGKEYKCKVSNKALPAPIEKTISKAKGQPREPQVYTLPPSRDELTKNQVSLTCLVKGFYPSDIAVEWESNGQPENNYKTTPLVLDSDGSFFLYSKLTVDKSRWQQGNVFSCSVMHEALHNHYTQKSLSLSPGK
# light: DIVMTQSHKFMSTSVGDRVSITCKASQDVNTAVAWYQQKPGHSPKLLIYSASFRYTGVPDRFTGSRSGTDFTFTISSVQAEDLAVYYCQQHYTTPPTFGGGTKVEIKRTVAAPSVFIFPPSDEQLKSGTASVVCLLNNFYPREAKVQWKVDNALQSGNSQESVTEQDSKDSTYSLSSTLTLSKADYEKHKVYACEVTHQGLSSPVTKSFNRGEC
# notes: Chimeric Fc-optimized IgG1/kappa monoclonal antibody; Tested as drug product Lot A in the F1 formulation after storage; also called MGAH22; Margetuximab DP Lot A; copies: 2 + 2
# Columns and labels:
# [1] = biological target: T1, soluble recombinant human FcγRIIIa (human, UniProt P08637 17-208, limits assumed); assay: indirect competitive ELISA, FcγRIIIa coated, competitor MGAH22-Bt, against margetuximab Reference Standard; stored 2-8° C., 33 months
# T1 construct: Coated on the ELISA plate; also called CD16a; Fcγ Receptor subtype IIIa
# T1 sequence (P08637 17-208 limits assumed): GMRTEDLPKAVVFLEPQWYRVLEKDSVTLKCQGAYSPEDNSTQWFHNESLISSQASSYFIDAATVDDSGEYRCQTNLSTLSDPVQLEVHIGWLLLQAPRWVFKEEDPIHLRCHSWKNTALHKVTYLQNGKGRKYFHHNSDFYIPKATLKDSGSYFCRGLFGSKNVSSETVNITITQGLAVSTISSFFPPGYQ
# Protocol: (§1) Margetuximab contains point mutations in the Fc-domain that enhance the interaction of the margetuximab constant region with some human Fc receptors, in particular the Fcγ Receptor subtype […] (FcγRIIIa), also referred to as CD16a. The potency of the Fc domain is assessed with an indirect competitive enzyme linked immunosorbent assay (ELISA) essentially as described. The quantification of the binding of margetuximab test article Fc to the FcγRIIIa is measured by its ability to compete against the binding of a biotin-labeled margetuximab competitor sample (MGAH22-Bt). To perform the assay, soluble recombinant human FcγRIIIa is coated to the solid phase (96-well assay plates). A dilution series of margetuximab Test Article (TA) in a constant concentration of MGAH22-Bt is allowed to bind to the immobilized FcγRIIIa. A dilution-series of the test article and of the margetuximab Reference Standard is analyzed in this manner on the same assay plate, in order to generate dose-response curves for both the test article and the margetuximab Reference Standard. […] Oxidation of the added AP substrate by the conjugated AP yields a color product that can be measured at 405±10 nm. The intensity (absorbance) of the color signal is measured using a microplate reader. […] Data are fitted to a constrained four-parameter logistic model to describe absorbance signal as a function of margetuximab concentration. […]
# [2] = biological target: T1, soluble recombinant human FcγRIIIa; assay: indirect competitive ELISA, FcγRIIIa coated, competitor MGAH22-Bt, against margetuximab Reference Standard; stored 2-8° C., 3 months
# Protocol: as §1
# [3] = biological target: T1, soluble recombinant human FcγRIIIa; assay: indirect competitive ELISA, FcγRIIIa coated, competitor MGAH22-Bt, against margetuximab Reference Standard; stored 25 ± 2° C., column head 1 month
# Protocol: as §1
# [4] = biological target: T1, soluble recombinant human FcγRIIIa; assay: indirect competitive ELISA, FcγRIIIa coated, competitor MGAH22-Bt, against margetuximab Reference Standard; stored 2-8° C., 9 months
# Protocol: as §1
# [5] = biological target: T1, soluble recombinant human FcγRIIIa; assay: indirect competitive ELISA, FcγRIIIa coated, competitor MGAH22-Bt, against margetuximab Reference Standard; stored 2-8° C., 24 months
# Protocol: as §1
# [6] = biological target: T1, soluble recombinant human FcγRIIIa; assay: indirect competitive ELISA, FcγRIIIa coated, competitor MGAH22-Bt, against margetuximab Reference Standard; stored 25 ± 2° C., column head 2 months
# Protocol: as §1
# [7] = biological target: T1, soluble recombinant human FcγRIIIa; assay: indirect competitive ELISA, FcγRIIIa coated, competitor MGAH22-Bt, against margetuximab Reference Standard; stored 25 ± 2° C., column head 3 months
# Protocol: as §1
# [8] = biological target: T1, soluble recombinant human FcγRIIIa; assay: indirect competitive ELISA, FcγRIIIa coated, competitor MGAH22-Bt, against margetuximab Reference Standard; stored 25 ± 2° C., column head 5 months
# Protocol: as §1
# [9] = biological target: T1, soluble recombinant human FcγRIIIa; assay: indirect competitive ELISA, FcγRIIIa coated, competitor MGAH22-Bt, against margetuximab Reference Standard; stored 2-8° C., 1 month
# Protocol: as §1
# [10] = biological target: T1, soluble recombinant human FcγRIIIa; assay: indirect competitive ELISA, FcγRIIIa coated, competitor MGAH22-Bt, against margetuximab Reference Standard; stored 2-8° C., 0 months
# Protocol: as §1
# [11] = biological target: T1, soluble recombinant human FcγRIIIa; assay: indirect competitive ELISA, FcγRIIIa coated, competitor MGAH22-Bt, against margetuximab Reference Standard; stored 2-8° C., 6 months
# Protocol: as §1
# [12] = biological target: T1, soluble recombinant human FcγRIIIa; assay: indirect competitive ELISA, FcγRIIIa coated, competitor MGAH22-Bt, against margetuximab Reference Standard; stored 2-8° C., 36 months
# Protocol: as §1
# [13] = biological target: T1, soluble recombinant human FcγRIIIa; assay: indirect competitive ELISA, FcγRIIIa coated, competitor MGAH22-Bt, against margetuximab Reference Standard; stored 25 ± 2° C., column head 4 months
# Protocol: as §1
# [14] = biological target: T1, soluble recombinant human FcγRIIIa; assay: indirect competitive ELISA, FcγRIIIa coated, competitor MGAH22-Bt, against margetuximab Reference Standard; stored 2-8° C., 30 months
# Protocol: as §1
# [15] = biological target: T1, soluble recombinant human FcγRIIIa; assay: indirect competitive ELISA, FcγRIIIa coated, competitor MGAH22-Bt, against margetuximab Reference Standard; stored 2-8° C., 48 months
# Protocol: as §1
# [16] = biological target: T1, soluble recombinant human FcγRIIIa; assay: indirect competitive ELISA, FcγRIIIa coated, competitor MGAH22-Bt, against margetuximab Reference Standard; stored 2-8° C., 18 months
# Protocol: as §1
# [17] = biological target: T1, soluble recombinant human FcγRIIIa; assay: indirect competitive ELISA, FcγRIIIa coated, competitor MGAH22-Bt, against margetuximab Reference Standard; stored 25 ± 2° C., column head 0 months
# Protocol: as §1
# [18] = biological target: T1, soluble recombinant human FcγRIIIa; assay: indirect competitive ELISA, FcγRIIIa coated, competitor MGAH22-Bt, against margetuximab Reference Standard; stored 25 ± 2° C., column head 6 months
# Protocol: as §1
# [19] = biological target: T1, soluble recombinant human FcγRIIIa; assay: indirect competitive ELISA, FcγRIIIa coated, competitor MGAH22-Bt, against margetuximab Reference Standard; stored 2-8° C., 12 months
# Protocol: as §1
binder,measurement,setting,value
B1,relative potency by FcγRIIIa Binding ELISA (100% x IC50 Reference Standard/IC50 Test Article),[1],107%
same,relative potency by FcγRIIIa Binding ELISA (100% x IC50 Reference Standard/IC50 Test Article),[2],92%
same,relative potency by FcγRIIIa Binding ELISA (100% x IC50 Reference Standard/IC50 Test Article),[3],82%
same,relative potency by FcγRIIIa Binding ELISA (100% x IC50 Reference Standard/IC50 Test Article),[4],106%
same,relative potency by FcγRIIIa Binding ELISA (100% x IC50 Reference Standard/IC50 Test Article),[5],100%
same,relative potency by FcγRIIIa Binding ELISA (100% x IC50 Reference Standard/IC50 Test Article),[6],100%
same,relative potency by FcγRIIIa Binding ELISA (100% x IC50 Reference Standard/IC50 Test Article),[7],99%
same,relative potency by FcγRIIIa Binding ELISA (100% x IC50 Reference Standard/IC50 Test Article),[8],76%
same,relative potency by FcγRIIIa Binding ELISA (100% x IC50 Reference Standard/IC50 Test Article),[9],81%
same,relative potency by FcγRIIIa Binding ELISA (100% x IC50 Reference Standard/IC50 Test Article),[10],76%
same,relative potency by FcγRIIIa Binding ELISA (100% x IC50 Reference Standard/IC50 Test Article),[11],103%
same,relative potency by FcγRIIIa Binding ELISA (100% x IC50 Reference Standard/IC50 Test Article),[12],107%
same,relative potency by FcγRIIIa Binding ELISA (100% x IC50 Reference Standard/IC50 Test Article),[13],104%
same,relative potency by FcγRIIIa Binding ELISA (100% x IC50 Reference Standard/IC50 Test Article),[14],103%
same,relative potency by FcγRIIIa Binding ELISA (100% x IC50 Reference Standard/IC50 Test Article),[15],101%
same,relative potency by FcγRIIIa Binding ELISA (100% x IC50 Reference Standard/IC50 Test Article),[16],105%
same,relative potency by FcγRIIIa Binding ELISA (100% x IC50 Reference Standard/IC50 Test Article),[17],76%
same,relative potency by FcγRIIIa Binding ELISA (100% x IC50 Reference Standard/IC50 Test Article),[18],82%
same,relative potency by FcγRIIIa Binding ELISA (100% x IC50 Reference Standard/IC50 Test Article),[19],110%

# From US20220177602A1 (MacroGenics, published 2022)
